From patent publication US20200255836 come the findings set out here.

In this data set the target is Cas9 (His-Cas9) (Streptococcus pyogenes) (UniProt Q99ZW2). The data set is described as follows: SPR. The following applies: Cas9 without guide; 20 mM Tris pH 8.0, 150 mM NaCl, 1 mM MgCl2.
Chain of Cas9 (His-Cas9) (Streptococcus pyogenes) (Q99ZW2 whole entry): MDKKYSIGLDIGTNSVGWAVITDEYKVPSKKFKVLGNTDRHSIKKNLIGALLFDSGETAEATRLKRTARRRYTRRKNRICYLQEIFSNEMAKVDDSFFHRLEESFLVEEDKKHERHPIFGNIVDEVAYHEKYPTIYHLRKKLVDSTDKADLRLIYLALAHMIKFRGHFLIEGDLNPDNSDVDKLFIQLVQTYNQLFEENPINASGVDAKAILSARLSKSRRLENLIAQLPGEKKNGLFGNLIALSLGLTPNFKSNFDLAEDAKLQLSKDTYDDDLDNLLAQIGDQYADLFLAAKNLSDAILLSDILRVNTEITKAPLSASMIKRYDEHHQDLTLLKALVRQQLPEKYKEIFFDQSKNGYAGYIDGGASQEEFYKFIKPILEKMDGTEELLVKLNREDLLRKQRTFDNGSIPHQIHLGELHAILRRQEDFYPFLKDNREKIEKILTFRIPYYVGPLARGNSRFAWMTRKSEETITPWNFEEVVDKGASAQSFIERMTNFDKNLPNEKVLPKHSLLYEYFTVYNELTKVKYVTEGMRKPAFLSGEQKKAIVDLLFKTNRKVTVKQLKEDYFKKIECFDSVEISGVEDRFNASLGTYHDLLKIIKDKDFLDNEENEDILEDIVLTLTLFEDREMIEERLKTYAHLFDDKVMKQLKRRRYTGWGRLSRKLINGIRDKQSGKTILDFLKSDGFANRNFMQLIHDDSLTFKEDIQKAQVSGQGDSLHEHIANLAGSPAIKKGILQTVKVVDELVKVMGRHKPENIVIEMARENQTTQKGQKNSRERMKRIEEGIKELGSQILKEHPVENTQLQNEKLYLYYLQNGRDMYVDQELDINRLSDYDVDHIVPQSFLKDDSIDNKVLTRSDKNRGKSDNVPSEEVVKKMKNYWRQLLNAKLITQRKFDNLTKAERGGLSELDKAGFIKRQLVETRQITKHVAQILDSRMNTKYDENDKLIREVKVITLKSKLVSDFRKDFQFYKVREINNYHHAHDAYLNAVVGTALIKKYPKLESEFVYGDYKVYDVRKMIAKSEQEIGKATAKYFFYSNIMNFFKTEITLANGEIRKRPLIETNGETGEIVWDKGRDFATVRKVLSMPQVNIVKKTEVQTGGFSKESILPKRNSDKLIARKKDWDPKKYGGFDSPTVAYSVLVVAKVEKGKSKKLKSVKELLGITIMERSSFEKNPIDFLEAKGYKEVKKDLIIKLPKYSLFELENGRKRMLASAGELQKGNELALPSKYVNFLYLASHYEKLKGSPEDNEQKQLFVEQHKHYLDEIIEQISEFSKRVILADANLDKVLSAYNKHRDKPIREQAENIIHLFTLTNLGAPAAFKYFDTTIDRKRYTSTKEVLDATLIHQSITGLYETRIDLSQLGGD

Regarding “GAGGCTCTCACATCGGTAACGGTGTGAGAGCCTC [Tetra]”, the Kd (commonly the constant that tells how readily two partners part at equilibrium) came to 8.79 µM.
